In a protein production outcome set (Wang et al. 2014):

Assay: label from the status in PepcDB records
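Note: failed if final PepcDB status was selected cloned or expressed and not failed if soluble or beyond.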

Sequence | protein production
MIKGTGHMIVNIANDRGMSIDSIRKTIKESVLIAYKKYFGSNENAFIKFDDDTGDLSVYAKKKIVKEVKDSLLEILEKDISKENIVEGDYAYIEINPKVFDRLSIQVAKQRTKNDLQGIEDNEILSEFKSKLNKVVIGYVQQNRNGDLYVNLGNTDGIIPKKYQSPREVYNLNDKIRVLVYNVKKGKNGIEVILSRTHPKFIEELLALEIPEIEEGIIKIHKIVRDPGYRIKVAVYSEKEEIDPVGPCIGQKGVRIQSIIKELEGEKIDIIPYSKDIKEFIKDSLTPSKIEHVYILDEDLHKALVVVSDDQLSLAIGKMGQNVRLANRLLDWAIDVKTSSQFAEMKANSEFKQETLEMFDKVMQDVVEEEQFEEISKISDLKLLDPSVISNLSKEGFDDINNFLQADEGVLFNLGVSYEKQEEINKILKEGMIIIANDNDESMEKVEEDEELLCPECGVVINENMTSCPGCKIGLSFEFEEE | failed
MTIGEIIDCLNRRESIAIIAKRLEISPYTLSKKLRLIGYEYDGEQKKRIFVGDGEEPRHLQLQEATALQYAKTDYQLLIYEQLQSIYELLRKREEVIVPIMNISTEKKKRTFSINKEILAKLDVISESKGIQKSKLVEEALQQFLQQYDFNNTSHFDN | failed
MSDSKSHDPNQMTGAAMIVRAMIDHGVEHIFGYPGGSVLPIYDELFQNSEKLQHILVRHEQGAGHAAEGYARSTGKPGVVLVTSGPGATNMVTPLADALMDSIPIVCITGQVPTHLIGNDAFQECDTVGITRPCTKHNWLVRDIKDLARVLHEAFYVATSGRPGPVVVDVPKDVQFATGTYHPPRKSDVHVSYTPRLKGDPGQIRKAVALLASAKKPVIYSGGGVVNSGEEAWKLLRELVEVTDFPITSTLMGLGAYPASGKNWLGMLGMHGTYESNMTMHDCDVMLCIGARFDDRITGRTDAFSPNSKKIHIDIDPSSINKNIRVDVPIIGDVAHVLADLLAAFKAEAKKADTKAWWLQIAAWRGRNSLAYKKNNDVILPQYAIERLYAATRGRDTYITTEVGQHQMWAAQFYGFERPRRWMTSGGLGTMGYGLPAALGVQVAHPDSLVIDIAGDASVQMTMQEMATAVQYELPIKIFILNNQYMGMVRQWQQLLHGNRLSHSYTEAMPDFVKLADAYGGVGMQVFKPSDLDGAIQDMIKVKKPVLFDCRVASLENCFPMIPSGKAHNEMLLPSEANDETTAAAFAGGGALV | failed
MLIRRKIMQYNDMSKEELLVLKESLNKEYAEAKAKGLALDMSRGKPSAKQLDVSLGLLDTINSSSDLKSLDGTDCRNYGVLDGIPEAKKLMADMMGTTPDHVIVYGNASLNIMYDQISRAYTHGILGNTPWCKLDKVKFLCPVPGYDRHFAITERFGIEMINIPMSESGPDMGMVEEYVSKDASVKGIWCVPKYSNPQGYTYSEETVKRMAALKPAAEDFRIFWDNAYVIHDLYDDNKDEIADIISECEKAGNPDMVFEFASTSKVSFPGSGIAALATSANNIADIKKQLTIQTIGHDKLNQLRHVRFFKDINGLKEHMRKHAEFIRPKFEAVESVLEEELSGLGIGSWTEPKGGYFISFDAMDGCAKAIVAKCKEAGVKLTGAGATFPYGKDPKDSNIRIAPSFPTPEEMKQAADLFVLCVKLVSVEKLLENK | failed
MKLLFVSPGWPRGRLWGELGFKFPSLSLAALAAVTPESWDVALCDENIEPLDLNSDADLVAITAMTPQAPQAYRIAAAFRARGKRVVMGGFHASNLPEEALQHVDAVVVGEGEVVWPQLLADLERGELQRIYRAATALAMEAIPVARRELFQGKRYLFTNTLQTTRGCPFDCEFCSVTAFYGRRYRKRPVDNVLAELELLRRRNSFAFFVDDNLVADRTYALSLFAGMKGMGFKWLSHAPIDFAHDREFLRAAGEAGCVGMFVGFESLNQDALAAMGKVTNTARSYLEDAQAFRDNGIGILGSFVLGCDNDTPAVFEGLLRFCEEARLEAAIFPILTPYPGTEVRRRLEAEGRIISSDWQDYDMEHVTFLPRGMSVDELQQGYDWLNRSFYSLPSMYRRIFKAHRSVQVFAPMNFGFRSAIRRKGRVA | failed
MTPHPARSKISPYRDIEIFMDLEDWSARLKVFADATRVRLLALLEQEELTVAELSAITRLAQPRVSTHLAKLKEAGLVRDRRAGVSAYYRFDEVSLDPAQRALWLALSTGSDDPLLRQDAERVAAVLANRAADQNWADSVAGDMERHYSPGRTWEALARTALPLLETGDVLDIASGDGVLAELVAPHATRYICIDTSARVVAAASERLRKLRNVEVREGDMHALPFPDASFDLVVLMHALTYAAKPAQAVAESARVLRPGGRLLLCSLAKHEHRAAVQAYGHVNLGFAAKELRKFVEKAGLDVSNLESVTREKRPPHFEVISLIAMKPGIGNRESGLVEGKSNASRRANA | failed
MHFNLPTYLTLLRIVLIPVLTVAFYLPWSGAHVVSGVIFAIAAITDWLDGYLARRMGLATRFGAFLDPVADKLMVAVALVLIVQAEPRPLIALASAIIIGREITIASLREWMAEIGQRKRVEVSALGKWKTTFQMLAITLLLLGLDIPHGGVKTTGELLLVVSATLTLWSMIVYLQAAMPVFKAGAEAE | not failed
MNISLVFPPFHLQSLYNLPPLGLISLATVLGEAGHRAVIRDLVLALRQGSLGMGKELYGEAARMILRDDPDLVGFSAQCTTFPAVVRIARLLKEQKPDLRIVAGGHNVSFLDVPTLERFPWIDAVVRGEGEVTFRELAASFAVGNDPAEVAGVTWRRGTEIVRNPDRELIADLDTLPLPDYTLVPPLASYRDACGIPRSIAILEVGRGCPHRCVYCSESVMWRRRTRTFSIPRLIREMEELHGRFGAECLVLAYDQFTADRRFVEEFCNRVIDARLNRVPWYCISRLDSLDRPLLDLMREAGCESMCYGIDSGSRRTLAFIGKEIDEGILYQRVRETTEAGMVPTLSFVIGFPEEEREDIDQTLFLALKAGVQGNSAPLVQLPTVLAGTELHRRYTGRLVREVDTYFSLGLEFDHGRRLADDERLIDADPFLFSSFYNLPCAGVPLAELDRIARWFPLILNGYPKSFILLSLALGRPPSNLFREILSRLEEDGWREDDPTAETAFLERFPCHAEGLMAGSASWPHFAEILTYETLALRATHRGPPRADGAGPLKGDPAGECRPVLREEVTVSEFRRNLPAIIADLKSGIFRESYPPEPTLLIFYPSGERLEVMEINRFGKDFLLLCNGLATCEEIAATLYGEYGDAMDSGAFSEECKDALTVFTGMGLVRDGAAPAP | failed
MQEESHIEEVEIQNKLEVAPALISVHPSQKSVAVAVGSDLRIFDLIENCPVSLVDESDGPIRKESIRAIRYSTSGKLFVSAGDDKLVKIWSADSWRCLNTVCSEKRVSAVAISSDDSHVCYADKFGVVWVIELDGINDGKTLPSKKGALLLSHYCSIITSLEFSPDGRYILSADRDFKIRVTVFPKKPLEGAHEIQSFCLGHSEFITCTAFVSTPELTQGYLMSGSGDSTVRLWDITSGSLLDTCEVSTVAGHAESNENESPTQVTVTDICAIPNSSLAAVAIQSFQGIFLLSCDLTAHTLSITKVIKIPGESFIPTSIAVSASSRLLWMVSGASNLPGSNHPGFSRVRVISCLETESSSILEDEQIPGGTKLLEQLQGKVTIEESVMSAAAEAVRAAMSSLLMKKQYSEEKREFRKRTRNDKKTTR | failed
MEEWSASEACLFEEALEKYGKDFNDIRQDFLPWKSLTSIIEYYYMWKTTDRYVQQKR | not failed
MIVMSKNVDEAISRKEEKCIMSFIPNMITIANFVCGLLAIYAVFVHDIYLGAVFIITGMLFDFFDGMVARKLDSVSEIGGELDSFADLVTFGVAPSILAYSASLKDLQSIGMICALTYSICGMLRLARFNTQQSKLPTFIGMPIPFAAMCLLILCFLKNPVSVAFGTCVLAYLMVSKIKFPHFKKDIAESLKPGRLD | failed
MEAATWILFTLGVSLILAKIGDSLVERFELPGVLGELLVGIILGNLVYFGVISSEYLPITAGSSEVIDFMAKLGVVFLLFLGALDTDLNLIKRTGITAVVSTILGVFVPLILGYLGLRWLGYDNKEAFAGGVLLTATSIGLTVRVMMDLGVLRSEVGAASLSASVIDDFLGIALIIFAVGSGSLLGLGIKIIIFFLITGVVGWYFIDHYLKFAERLGVEKGVLGFVLGMMLIFSALAEGWFAAAIEGAFMMGLILSKTAEGKRLLEEVRSIGYGFLIPIFFVHTGAMLNFKVFENLEAIKLAVVLSVIAIVGKVAGRGFGAWITAWGRGKDFLFTRENFRMSFQMGIGSIPRTEVALVALMVAIHGGAISPDDAPKFIAATLIFITISVLITPPLLKWAFREEILAQKKLLLENRKEKIESKKRGTR | failed
MKRDRNLTWHRTDALRPNLEGRQVAVIGGTGGIGRALSRHLASLDARVVVVGQTFRDADVPGIRFIQADLSLMHEAQRVAGLLPAQTLDLVIFTTGIFAAPQRQETTEGIERDLAVSYLNRLVMLRAIAPTLGTQRARPAMKPRVFIMGYPGSGQTGAPDDLNAEAPYKAMAAHMNTVAGNEMLVLDAALRYPQATFFGLNPGLIKTGIRDNFFGKGSVKSRIAETLIGWLTPTADTYAQRITPLLMSPDLEGHSGAMFNSKGQAILPSPGLGEAHIRKFMAASEALANRTGIHPIGQEDRP | failed
MASLRLPAQLVTRGNLIHHNSSSSSSGRLSWRRSLTPENTIPLFPSSSSSSLNRERSIVVPVTCSAAAVNLAPGTPVRPTSILVVGATGTLGRQIVRRALDEGYDVRCLVRPRPAPADFLRDWGATVVNADLSKPETIPATLVGIHTVIDCATGRPEEPIKTVDWEGKVALIQCAKAMGIQKYVFYSIHNCDKHPEVPLMEIKYCTEKFLQESGLNHITIRLCGFMQGLIGQYAVPILEEKSVWGTDAPTRVAYMDTQDIARLTLIALRNEKINGKLLTFAGPRAWTTQEVITLCERLAGQDANVTTVPVSVLRVTRQLTRFFQWTNDVADRLAFSEVLSSDTVFSAPMTETNSLLGVDQKDMVTLEKYLQDYFSNILKKLKDLKAQSKQSDIYF | failed
ARFMAVSSELKDDTRTYTVAGQVFFASSDRFMSHFDFREAVERVVIDVTHAHFWDITSVSALDRVVIKFRREGTEVEIKGMNDATRTLVDRFGVHDKPEEVEKLMGGH | not failed
MDINMKKHKTIQFIVAALFIASACTDDRDNLMVNDQIGLLHSTYTETEIFRGMDTPYQLFVIKSGKGKQETEVSISVDETVLQSYNTDNGTSIQLLPSDCYTILQPALRLNDSDYRKAFDIKWNADRLSDLLSTGKEYGLPIQMSVVQNFISADDERLKTIIVPTIKEPYLQMDVPGMSPVTDFMPTFGDLNERELFVKIRTNYSNDEDISFQIEVDPQLVIDYNTAHGTAYKMLPESSFTVDNKGVILTGMKETFIKIKYHKKGLIPEEGTYLFGDYVLPLRITSVSKYGISPDAASKLYTVKFQPDPIDKKGWSVIDFNNCCTQDGGWYLNMGWGVESLIDNNPGTQWLCRWDVKEPLPYYFVFDMGKEYTLFRFGFANPVAPAAHVWAGTSKAGYVEASIDNENWVKLKDWTSPKIGEPNVNMDVPATQARYIRFVITDTYPTYDGLRVSLGEVYAWGM | failed
MYLTLTIAAMPAYNEAHVIAEVILGCKKYVDNVIVVDDGSSDNTAEVARSAGGYVVKHEVNKGYGAALKSCFKLAREFNADVMIIMDSDGQHNPDEIPRLLEPLKHGADLVIGSRFINGNGKNVPAYRKVGMKILDIATYLAGGILVTDSQSGFRAYGKKAIENVRFDGNNMSAGSEILLYIKDHNLKFTEVEIHCRYDLDQCSSQNPFLHGMEVAFQILKNMGFRRPLYYFTVPGILLIAAGLLIEIAFLHLVGSFGFGVISLIFLMILTGIFMVFTGVILHLVSKMISQIVPGQKGTESLNDGF | failed
